For assay [1], the target named is SARS-CoV-2 spike receptor-binding domain (RBD), residues 333 to 529, wild type, for crystallization (SARS-CoV-2 Wuhan-Hu-1 (QHD43416.1), UniProt P0DTC2). The assay can be described thus: crystal structure. To be noted: both partners purified.
Assay [2] deals with SARS-CoV-2 RBD, ancestral (wild type), for biolayer interferometry (SARS-CoV-2 Wuhan-Hu-1 (ancestral), UniProt P0DTC2). The assay can be described thus: BLI; Octet Red; […] (15 µg/mL) […] (AHC) biosensors; […]; 1x PBS pH 7.4, 0.01% BSA, 0.002% Tween 20; association 90 s, dissociation 90 s; 1:1 binding model. To be noted: both partners purified. For orientation: BLI is a label-free optical method that tracks binding on a fibre tip over time.

B1: ADG20 Fab (Fab, V domains shown)
VH: EVQLVESGGGLVKPGGSLRLSCAASGFTFSSYYMNWVRQAPGKGLEWVSSISEDGYSTYYPDSLKGRFTISRDSAKNSLYLQMNSLRADDTAVYYCARDFSGHTAWAGTGFEYWGQGTLVTVSS
VL: QPVLTQPPSVSGAPGQRITISCTGSSSNIGAGYDVHWYQQLPGTAPKLLIYGSSSRNSGVPDRFSGSKSGTSASLAITGLQAEDEADYYCQSYDSSLSVLYTFGTGTKVTVL
notes: also called ADG-2 (same Fab domain)
As for B1, the binding result in assay [1] was “binds”.

B2: ADI-55688 Fab (Fab, V domains shown)
VH: EVQLVESGGGLVKPGGSLRLSCAASGFTFSSYYMNWVRQAPGKGLEWVSSISSDGYNTYYPDSLKGRFTISRDSAKNSLYLQMNSLRADDTAVYYCARDFSGHTAVAGTGFEYWGQGTLVTVSS
VL: QPVLTQPPSVSGAPGQRITISCTGSSSNIGAGYDVHWYQQLPGTAPKLLIYGSSSRPSGVPDRFSGSKSGTSASLAITGLQAEDEADYYCQSYDSSLSVLYVFGTGTKVTVL
notes: also called parental antibody of ADG20
Turning to B2, the binding result in assay [1] is given as “binds”.

B3: ADG20 IgG (antibody, V domains shown)
VH: EVQLVESGGGLVKPGGSLRLSCAASGFTFSSYYMNWVRQAPGKGLEWVSSISEDGYSTYYPDSLKGRFTISRDSAKNSLYLQMNSLRADDTAVYYCARDFSGHTAWAGTGFEYWGQGTLVTVSS
VL: QPVLTQPPSVSGAPGQRITISCTGSSSNIGAGYDVHWYQQLPGTAPKLLIYGSSSRNSGVPDRFSGSKSGTSASLAITGLQAEDEADYYCQSYDSSLSVLYTFGTGTKVTVL
notes: copies: 2 + 2
With B3, the binding result in assay [2] is given as “binds”.

The record behind these values is paper PMC9304036 (Proceedings of the National Academy of Sciences of the …, 2022).
